From paper PMC6479699, “Structural and Functional Characterization of the Human Thymidylate Synthase (hTS) Interface Variant R175C, New Perspectives for the Development of hTS Inhibitors” (Molecules, 2019)

Target: the molecule itself
Assay: SEC; HiLoad 16/600 Superdex 75pg column, last purification step; sample dialysed in buffer A (50 mM Tris pH 6.9, 300 mM KCl) beforehand

B1: His6-tag human thymidylate synthase variant R175C (enzyme, UniProt P04818 1-313, looked up)
chain: MPVAGSELPRRPLPPAAQERDAEPRPPHGELQYLGQIQHILRCGVRKDDRTGTGTLSVFGMQARYSLRDEFPLLTTKRVFWKGVLEELLWFIKGSTNAKELSSKGVKIWDANGSRDFLDSLGFSTREEGDLGPVYGFQWRHFGAEYRDMESDYSGQGVDQLQRVIDTIKTNPDDCRIIMCAWNPRDLPLMALPPCHALCQFYVVNSELSCQLYQRSGDMGLGVPFNIASYALLTYMIAHITGLKPGDFIHTLGDAHIYLNHIEPLKIQLQREPRPFPKLRILRKVEKIDDFKAEDFQIEGYNPHPTIKMEMAV
modifications: Cys195 oxidized to S-oxy-cysteine (CSX195) in all subunits of the crystal structure
notes: human thymidylate synthase (hTS, EC 2.1.1.45); Arg175 replaced by cysteine; In the crystal the chains were traced apart from the first 22-23 N-terminal residues and the C-terminal valine; also called HT-hTS R175C; hTS R175C; not shown: His6, N-terminal, kept
- stoichiometry N: 2
